Article PMC8977243 (Journal of molecular biology, 2022)

B1: His6-ERK2 (enzyme, rat, UniProt P63086 1-358, looked up)
chain: MAAAAAAGPEMVRGQVFDVGPRYTNLSYIGEGAYGMVCSAYDNLNKVRVAIKKISPFEHQTYCQRTLREIKILLRFRHENIIGINDIIRAPTIEQMKDVYIVQDLMETDLYKLLKTQHLSNDHICYFLYQILRGLKYIHSANVLHRDLKPSNLLLNTTCDLKICDFGLARVADPDHDHTGFLTEYVATRWYRAPEIMLNSKGYTKSIDIWSVGCILAEMLSNRPIFPGKHYLDQLNHILGILGSPSQEDLNCIINLKARNYLLSLPHKNKVPWNRLFPNADSKALDLLDKMLTFNPHKRIEVEQALAHPYLEQYYDPSDEPIAEAPFKFDMELDDLPKEKLKELIFEETARFQPGYRS

Legend:
MBP-arrestin-2 = MBP-arrestin-2 (bovine, UniProt P17870 1-418); assay: pull-down
His6-ERK2 = target: B1; assay: peptide or protein array

Binder | binding result (MBP-arrestin-2) | binding result (His6-ERK2)
B1 | binds | 
CKVYTLTPFLANNRE [arrestin-2-derived peptide CKVYTLTPFLANNRE] |  | binds
